Data taken from paper PMC10504324, “A microprotein N1DARP encoded by LINC00261 promotes Notch1 intracellular domain (N1ICD) degradation via disrupting USP10-N1ICD interaction to inhibit chemoresistance in Notch1-hyperactivated pancreatic cancer” (Cell Discovery, 2023).
Values joined by “and” are separate entries in the source; they are usually repeats but may differ in a detail not shown here. Equal entries are not always repeated. Bridge positions count the residues as written; N and C are the ends. Square brackets hold non-standard residues; d marks the D form. Ends that are not written are not given here. S5 = C=CCCC[C@](C)(N)C(=O)O

Key:
[1] = system: Capan1; experiment: IC50 assay, chemosensitivity to GEM; type: cell-based; details: Homo sapiens, CAPAN-1; Capan1, Vector; Fig. 5j
[2] = system: metastatic pancreatic cancers; details: cited from earlier work; for remission in clinical studies: γ-secretase inhibitors, metastatic pancreatic cancers
Text: The Notch pathway is active in a broad spectrum of human cancers, including breast, colorectal, lung, prostate, glioblastoma, and pancreatic cancer. Notch signaling is positively associated with pancreatic tumor initiation, progression, and drug resistance in both cell lines and genetic mutant mouse models[7],[8]. In preclinical models, pharmacological inhibition of Notch signaling by small molecules designed to affect HES1 transcriptional function (JI051 and JI130)[9] and natural agents targeting the Notch pathway, such as curcumin, genistein, quercetin, and sulforaphane, slowed tumor prol ...

[3] = target: AH2, alpha-helical peptide 2 of N1DARP (human); experiment: SPR; BIAcore T200 (GE Healthcare); dissociation constant calculated with BIA-evaluation software; which partner was immobilised is not stated
[4] = target: ANK domain of N1ICD (Homo sapiens, UniProt P46531); experiment: SPR analysis, affinity for ANK domain; type: binding; details: mAH2 compared with AH2, Fig. S8E
Method: The binding kinetics between N1DARP or SAH-mAH2-5 and the indicated peptides were analyzed using a SPR assay with a BIAcore T200 instrument (GE Healthcare, Pittsburgh, PA, USA). The dissociation constant was calculated using BIA-evaluation software.
309 was determined using reversed phase HPLC with electrospray ionization mass spectrometric detection.
311 Supplementary Note S1. Generation and modification of N1DARP-derived stapled peptide SAH-
313 To evaluate the therapeutic potential of disrupting the N1ICD-USP10 interaction with N1DARP and
314 define a more druggable target, we simulated the tertiary structure of N1DARP using I-TASSAR, a
315 hierarchical server for protein structure prediction4, and identified two α-helical peptides (AH1 and
316 AH2) (Fig. S8A, left panel).
318 we constructed and purified six subdomains with α-helix secondary structure of ANK, designated from
320 S8B-S8D). To optimize the physicochemical properties of AH2, we first checked the amino acid
322 cancer cells to AH2; therefore, we tried amino acid substitution of Glu32 by Gln32. SPR analysis
324 mAH2 (Fig. S8E). Next, to identify the indispensable amino acids mediating mAH2 and ANK
325 interactions, we substituted each amino acid of mAH2 with Ala, followed by SPR analysis. The results
328 i + 4, or i + 7) and denoted them as stapled α-helices (SAHs). […]

[5] = target: N1ICD (wild type; source not stated) (UniProt P46531); experiment: co-IP followed by western blotting (band intensity); details: HEK293T, IgG control 0.00
[6] = target: T1, ANK domain of Notch1 intracellular domain (N1ICD-ANK) (UniProt P46531 1927-2122); experiment: SPR; BIAcore T200 (GE Healthcare); dissociation constant calculated with BIA-evaluation software; which partner was immobilised is not stated; details: both partners purified
T1 construct: Notch1, ankyrin repeat (ANK) domain of the intracellular domain; the numbers fit human NOTCH1 (2555 aa); also called ANK repeat

[7] = target: T2, ANK domain of Notch2 intracellular domain (N2ICD-ANK) (UniProt Q04721 1827-2038); experiment: as above; details: both partners purified
T2 construct: Notch2, ANK domain of the intracellular domain; position 1827-2038, length 212 aa printed
T2 sequence (looked up): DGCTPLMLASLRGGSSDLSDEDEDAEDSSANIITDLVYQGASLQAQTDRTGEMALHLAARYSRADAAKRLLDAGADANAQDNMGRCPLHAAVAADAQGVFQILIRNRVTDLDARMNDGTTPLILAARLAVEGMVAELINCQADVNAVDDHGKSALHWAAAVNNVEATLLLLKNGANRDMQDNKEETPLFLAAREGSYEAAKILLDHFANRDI

[8] = target: T3, ANK domain of Notch3 intracellular domain (N3ICD-ANK) (UniProt Q9UM47 1838-2000); experiment: as above; details: both partners purified
T3 construct: Notch3, ANK domain of the intracellular domain; position 1838-2000, length 163 aa printed
T3 sequence (looked up): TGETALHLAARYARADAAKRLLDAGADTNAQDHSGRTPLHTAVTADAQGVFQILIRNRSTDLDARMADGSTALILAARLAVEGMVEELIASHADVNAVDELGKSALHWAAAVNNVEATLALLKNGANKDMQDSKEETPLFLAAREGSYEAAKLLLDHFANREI

[9] = target: T4, ANK domain of Notch4 intracellular domain (N4ICD-ANK) (UniProt Q99466 1633-1798); experiment: as above; details: both partners purified
T4 construct: Notch4, ANK domain of the intracellular domain; position 1633-1798, length 166 aa printed
T4 sequence (looked up): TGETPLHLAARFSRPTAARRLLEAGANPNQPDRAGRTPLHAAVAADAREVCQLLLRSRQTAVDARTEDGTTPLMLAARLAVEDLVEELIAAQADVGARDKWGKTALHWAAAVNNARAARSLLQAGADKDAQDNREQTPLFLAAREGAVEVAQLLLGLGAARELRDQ

[10] = IP: Anti-Flag (N1DARP-Flag), blot: Myc
[11] = IP: Anti-Myc (N1ICD-Myc), blot: Flag

Nc1ccn([C@@H]2O[C@H](CO)[C@@H](O)C2(F)F)c(=O)n1 [GEM, gemcitabine]
IC50 [1]: 44 nM

O=C(O)CC[C@H]1CC[C@@](c2cc(F)ccc2F)(S(=O)(=O)c2ccc(Cl)cc2)CC1 [MK-0752]
remission in clinical studies [2]: no significant remission was observed

CCC[C@H](N[C@H]1CCc2cc(F)cc(F)c2C1)C(=O)Nc1cn(C(C)(C)CNCC(C)(C)C)cn1 [PF-03084014]
remission in clinical studies [2]: no significant remission was observed

CC(C)(C(=O)NCC(F)(F)C(F)(F)F)C(=O)N[C@@H]1C(=O)Nc2ccccc2-c2ccccc21 [RO4929097]
remission in clinical studies [2]: no significant remission was observed

ANK1, subdomain of the ANK domain of N1ICD (from UniProt P46531 19-2555) (domain or fragment)
Kd [3]: 43.4 nM

ANK2, subdomain of the ANK domain of N1ICD (from UniProt P46531 19-2555) (domain or fragment)
Kd [3]: 23300 nM

ANK3, subdomain of the ANK domain of N1ICD (from UniProt P46531 19-2555) (domain or fragment)
Kd [3]: 85800 nM

ANK4, subdomain of the ANK domain of N1ICD (from UniProt P46531 19-2555) (domain or fragment)
Kd [3]: 66100 nM

ANK5, subdomain of the ANK domain of N1ICD (from UniProt P46531 19-2555) (domain or fragment)
Kd [3]: 42800 nM

ANK6, subdomain of the ANK domain of N1ICD (from UniProt P46531 19-2555) (domain or fragment)
Kd [3]: 64200 nM

mAH2: AH2 with amino acid substitution of Glu32 by Gln32 (YAKRIFYQLLSKQL)
affinity for ANK after substitution of Glu32 by Gln32 [4]: comparable affinity

tarextumab: fully human IgG2 antibody that inhibits Notch2/3 receptors
remission and tolerance, phase II study ([2]; metastatic pancreatic cancer, in combination with gemcitabine (GEM) and paclitaxel): remarkable remission and tolerance

wild-type N1DARP (overexpressed) D41A
response [5, 10]: 0.87
response [5, 11]: 1.07

wild-type N1DARP (overexpressed) G12A
response [5, 10]: 0.91
response [5, 11]: 0.93

wild-type N1DARP (overexpressed) L28A
response [5, 10]: 1.01
response [5, 11]: 0.87

wild-type N1DARP (overexpressed) Y20A
response [5, 10]: 0.26
response [5, 11]: 0.35

wild-type N1DARP (overexpressed) Y20A; Y34A
response [5, 10]: 0
response [5, 11]: 0

wild-type N1DARP (overexpressed) Y34A
response [5, 10]: 0.43
response [5, 11]: 0.31

B1: SAH-mAH2-2, stapled alpha-helix of mAH2 (peptide)
chain: Y[S5]KRI[S5]YQLLSKQL
modifications: staple 2-6
Kd [6]: 97.7 nM

B2: SAH-mAH2-4, stapled alpha-helix of mAH2 (peptide)
chain: [S5]AKRIFY[S5]LLSKQL
modifications: staple 1-8
Kd [6]: 25.8 nM

B3: mAH2, AH2 of N1DARP with Glu32 substituted by Gln32 (peptide)
peptide: YAKRIFYQLLSKQL
notes: N1DARP (41 aa, encoded by LINC00261) residues 20-33 with E32Q; also called modified AH2; substituted AH2; source: synthetic peptide (Chinese Peptide, Inc., Hangzhou; > 98% purity)
Kd [6]: 60.4 nM and 45.2 nM

B4: mAH2-1, alanine mutant of mAH2 (peptide)
peptide: AAKRIFYQLLSKQL
notes: N1DARP residues 20-33 with E32Q and position 1 of the peptide (Y20) to Ala; source: synthetic peptide (Chinese Peptide, Inc., Hangzhou; > 98% purity)
Kd [6]: 96.1 nM

B5: mAH2-12, alanine mutant of mAH2 (peptide)
peptide: YAKRIFYQLLSAQL
notes: N1DARP residues 20-33 with E32Q and position 12 of the peptide (K31) to Ala; source: synthetic peptide (Chinese Peptide, Inc., Hangzhou; > 98% purity)
Kd [6]: 78.2 nM

B6: mAH2-10, alanine mutant of mAH2 (peptide)
peptide: YAKRIFYQLASKQL
notes: N1DARP residues 20-33 with E32Q and position 10 of the peptide (L29) to Ala; source: synthetic peptide (Chinese Peptide, Inc., Hangzhou; > 98% purity)
Kd [6]: 55.5 nM

B7: mAH2-8, alanine mutant of mAH2 (peptide)
peptide: YAKRIFYALLSKQL
notes: N1DARP residues 20-33 with E32Q and position 8 of the peptide (Q27) to Ala; source: synthetic peptide (Chinese Peptide, Inc., Hangzhou; > 98% purity)
Kd [6]: 87.4 nM

B8: mAH2-3, alanine mutant of mAH2 (peptide)
peptide: YAARIFYQLLSKQL
notes: N1DARP residues 20-33 with E32Q and position 3 of the peptide (K22) to Ala; source: synthetic peptide (Chinese Peptide, Inc., Hangzhou; > 98% purity)
Kd [6]: 51.1 nM

B9: mAH2-4, alanine mutant of mAH2 (peptide)
peptide: YAKAIFYQLLSKQL
notes: N1DARP residues 20-33 with E32Q and position 4 of the peptide (R23) to Ala; source: synthetic peptide (Chinese Peptide, Inc., Hangzhou; > 98% purity)
Kd [6]: 74.5 nM

B10: mAH2-9, alanine mutant of mAH2 (Leu28 to Ala) (peptide)
peptide: YAKRIFYQALSKQL
notes: N1DARP residues 20-33 with E32Q and position 9 of the peptide (Leu28) to Ala; source: synthetic peptide (Chinese Peptide, Inc., Hangzhou; > 98% purity)
Kd [6]: 288 nM

B11: mAH2-14, alanine mutant of mAH2 (Leu33 to Ala) (peptide)
peptide: YAKRIFYQLLSKQA
notes: N1DARP residues 20-33 with E32Q and position 14 of the peptide (Leu33) to Ala; source: synthetic peptide (Chinese Peptide, Inc., Hangzhou; > 98% purity)
Kd [6]: 5960 nM

B12: AH2, alpha-helical peptide 2 of N1DARP (peptide)
peptide: YAKRIFYQLLSKEL
notes: N1DARP, 41-aa microprotein encoded by LINC00261 (ORF12); source: synthetic peptide (Chinese Peptide, Inc., Hangzhou; > 98% purity); 'purified AH2 peptide'
Kd [6]: 60.4 nM

B13: mAH2-11, alanine mutant of mAH2 (peptide)
peptide: YAKRIFYQLLAKQL
notes: N1DARP residues 20-33 with E32Q and position 11 of the peptide (S30) to Ala; source: synthetic peptide (Chinese Peptide, Inc., Hangzhou; > 98% purity)
Kd [6]: 83.9 nM

B14: mAH2-5, alanine mutant of mAH2 (peptide)
peptide: YAKRAFYQLLSKQL
notes: N1DARP residues 20-33 with E32Q and position 5 of the peptide (I24) to Ala; source: synthetic peptide (Chinese Peptide, Inc., Hangzhou; > 98% purity)
Kd [6]: 57.5 nM

B15: mAH2-6, alanine mutant of mAH2 (peptide)
peptide: YAKRIAYQLLSKQL
notes: N1DARP residues 20-33 with E32Q and position 6 of the peptide (F25) to Ala; source: synthetic peptide (Chinese Peptide, Inc., Hangzhou; > 98% purity)
Kd [6]: 63.6 nM

B16: mAH2-13, alanine mutant of mAH2 (peptide)
peptide: YAKRIFYQLLSKAL
notes: N1DARP residues 20-33 with position 13 of the peptide (residue 32: Glu in N1DARP, Gln in mAH2) to Ala; source: synthetic peptide (Chinese Peptide, Inc., Hangzhou; > 98% purity)
Kd [6]: 99 nM

B17: SAH-mAH2-3, stapled alpha-helix of mAH2 (peptide)
chain: YAKRI[S5]YQL[S5]SKQL
modifications: staple 6-10
Kd [6]: 10.5 nM

B18: SAH-mAH2-5, N1DARP-derived stapled peptide (peptide)
chain: YAKRI[S5]YQLLSK[S5]L
modifications: staple 6-13
Kd [6]: 0.898 nM
Kd [7]: 539 nM
Kd [8]: 69 nM
Kd [9]: 35.2 nM

B19: AH1, alpha-helical peptide 1 of N1DARP (peptide)
peptide: LLEKKRQY
notes: N1DARP, 41-aa microprotein encoded by LINC00261 (ORF12); source: synthetic peptide (Chinese Peptide, Inc., Hangzhou; > 98% purity)
Kd [6]: 213 nM

B20: SAH-mAH2-1, stapled alpha-helix of mAH2 (peptide)
chain: [S5]AKR[S5]FYQLLSKQL
modifications: staple 1-5
Kd [6]: 134 nM
